The target in the assay is MBP-Spt16 (budding yeast, UniProt P32558 1-1035). Description: pull-down.
Sequence of MBP-Spt16 (P32558 whole entry): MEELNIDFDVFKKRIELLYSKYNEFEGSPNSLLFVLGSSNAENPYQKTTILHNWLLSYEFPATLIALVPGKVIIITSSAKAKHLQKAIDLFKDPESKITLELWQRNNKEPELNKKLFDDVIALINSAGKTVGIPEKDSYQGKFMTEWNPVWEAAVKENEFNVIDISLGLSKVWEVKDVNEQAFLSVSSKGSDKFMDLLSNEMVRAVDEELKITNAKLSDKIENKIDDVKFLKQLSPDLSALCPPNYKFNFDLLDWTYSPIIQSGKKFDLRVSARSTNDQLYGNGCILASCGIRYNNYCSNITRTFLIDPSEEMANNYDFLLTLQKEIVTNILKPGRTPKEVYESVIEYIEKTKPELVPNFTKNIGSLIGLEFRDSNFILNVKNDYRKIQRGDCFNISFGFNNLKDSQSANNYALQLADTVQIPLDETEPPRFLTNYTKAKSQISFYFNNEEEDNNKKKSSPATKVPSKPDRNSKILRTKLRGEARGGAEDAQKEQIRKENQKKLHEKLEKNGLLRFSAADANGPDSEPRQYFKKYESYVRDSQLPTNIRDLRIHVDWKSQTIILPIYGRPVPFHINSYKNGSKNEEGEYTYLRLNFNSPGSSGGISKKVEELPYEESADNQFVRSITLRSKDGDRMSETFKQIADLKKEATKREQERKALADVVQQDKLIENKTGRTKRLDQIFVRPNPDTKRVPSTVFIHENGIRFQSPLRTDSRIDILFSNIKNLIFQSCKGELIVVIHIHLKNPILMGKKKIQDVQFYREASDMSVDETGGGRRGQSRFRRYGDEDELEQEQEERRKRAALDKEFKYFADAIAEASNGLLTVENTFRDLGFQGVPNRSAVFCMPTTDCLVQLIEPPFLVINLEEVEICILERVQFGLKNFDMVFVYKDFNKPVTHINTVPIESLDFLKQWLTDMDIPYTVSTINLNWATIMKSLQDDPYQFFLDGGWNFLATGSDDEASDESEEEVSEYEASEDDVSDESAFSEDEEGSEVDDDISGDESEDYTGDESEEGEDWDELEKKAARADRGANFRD

B1: GST-Psh1, full-length [FL (1-406)] (enzyme, budding yeast, UniProt Q12161 1-406, looked up)
chain: MGDELHNRLLHQNDGTKDAILYKIIESLVCSICHDYMFVPMMTPCGHNYCYGCLNTWFASNTQKELACPQCRSDITTIPALNTTLQQYLSFILEKLRDQNDESFKKLLTTKTKEENDYKNDKEKDTLFDKVFKNSALAVADDSDDGITRCSNCHWELDPDEVEDGNVCPHCNARIRNYAGGRDEFDEEEYSEGELDEIRESMRRRRENRFASTNPFANRDDVSSEDDDSSEEEPMREHIPLGRWARSHNRSIAVDAVDDEDDEEEDEEEEEEMDSDLKDFIEDDEDDEDEDGSRRNLVLSALKNRHVIITDDEEEEQRRHATEEEDRDSDFYEHNDDGFVSGDSLDEDQKEVTRIQSSSDSEDRSLSYSGSSDVKDNNDDNTEELDDPQPKRQKRFRVVLGDSDDE
In the case of B1, the binding result was “binds”.
